Assay results from patent publication US20250135039A1, “INHIBITOR-RESISTANT MGMT MODIFICATIONS AND MODIFICATION OF MGMT-ENCODING NUCLEIC ACIDS” (Ensoma, Inc., priority 2022, published 2025).

B1: N137F: MGMT polypeptide with mutation N137F (protein)
chain: MDKDCEMKRTTLDSPLGKLELSGCEQGLHEIKLLGKGTSAADAVEVPAPAAVLGGPEPLMQCTAWLNAYFHQPEAIEEFPVPALHHPVFQQESFTRQVLWKLLKVVKFGEVISYQQLAALAGNPKAARAVGGAMRGFPVPILIPCHRVVCSSGAVGNYSGGLAVKEWLLAHEGHRLGKPGLGGSSGLAGAWLKGAGATSGSPPAGRN
B2: P140Q: MGMT polypeptide with mutation P140Q (protein)
chain: MDKDCEMKRTTLDSPLGKLELSGCEQGLHEIKLLGKGTSAADAVEVPAPAAVLGGPEPLMQCTAWLNAYFHQPEAIEEFPVPALHHPVFQQESFTRQVLWKLLKVVKFGEVISYQQLAALAGNPKAARAVGGAMRGNPVQILIPCHRVVCSSGAVGNYSGGLAVKEWLLAHEGHRLGKPGLGGSSGLAGAWLKGAGATSGSPPAGRN
B3: P140F: MGMT polypeptide with mutation P140F (protein)
chain: MDKDCEMKRTTLDSPLGKLELSGCEQGLHEIKLLGKGTSAADAVEVPAPAAVLGGPEPLMQCTAWLNAYFHQPEAIEEFPVPALHHPVFQQESFTRQVLWKLLKVVKFGEVISYQQLAALAGNPKAARAVGGAMRGNPVFILIPCHRVVCSSGAVGNYSGGLAVKEWLLAHEGHRLGKPGLGGSSGLAGAWLKGAGATSGSPPAGRN
B4: P140I: MGMT polypeptide with mutation P140I (protein)
chain: MDKDCEMKRTTLDSPLGKLELSGCEQGLHEIKLLGKGTSAADAVEVPAPAAVLGGPEPLMQCTAWLNAYFHQPEAIEEFPVPALHHPVFQQESFTRQVLWKLLKVVKFGEVISYQQLAALAGNPKAARAVGGAMRGNPVIILIPCHRVVCSSGAVGNYSGGLAVKEWLLAHEGHRLGKPGLGGSSGLAGAWLKGAGATSGSPPAGRN
B5: N137P: MGMT polypeptide with mutation N137P (protein)
chain: MDKDCEMKRTTLDSPLGKLELSGCEQGLHEIKLLGKGTSAADAVEVPAPAAVLGGPEPLMQCTAWLNAYFHQPEAIEEFPVPALHHPVFQQESFTRQVLWKLLKVVKFGEVISYQQLAALAGNPKAARAVGGAMRGPPVPILIPCHRVVCSSGAVGNYSGGLAVKEWLLAHEGHRLGKPGLGGSSGLAGAWLKGAGATSGSPPAGRN
B6: P140R: MGMT polypeptide with mutation P140R (protein)
chain: MDKDCEMKRTTLDSPLGKLELSGCEQGLHEIKLLGKGTSAADAVEVPAPAAVLGGPEPLMQCTAWLNAYFHQPEAIEEFPVPALHHPVFQQESFTRQVLWKLLKVVKFGEVISYQQLAALAGNPKAARAVGGAMRGNPVRILIPCHRVVCSSGAVGNYSGGLAVKEWLLAHEGHRLGKPGLGGSSGLAGAWLKGAGATSGSPPAGRN
B7: P140H: MGMT polypeptide with mutation P140H (protein)
chain: MDKDCEMKRTTLDSPLGKLELSGCEQGLHEIKLLGKGTSAADAVEVPAPAAVLGGPEPLMQCTAWLNAYFHQPEAIEEFPVPALHHPVFQQESFTRQVLWKLLKVVKFGEVISYQQLAALAGNPKAARAVGGAMRGNPVHILIPCHRVVCSSGAVGNYSGGLAVKEWLLAHEGHRLGKPGLGGSSGLAGAWLKGAGATSGSPPAGRN
B8: P138K: MGMT polypeptide with mutation P138K (protein)
chain: MDKDCEMKRTTLDSPLGKLELSGCEQGLHEIKLLGKGTSAADAVEVPAPAAVLGGPEPLMQCTAWLNAYFHQPEAIEEFPVPALHHPVFQQESFTRQVLWKLLKVVKFGEVISYQQLAALAGNPKAARAVGGAMRGNKVPILIPCHRVVCSSGAVGNYSGGLAVKEWLLAHEGHRLGKPGLGGSSGLAGAWLKGAGATSGSPPAGRN

System: U251 human glioblastoma cell line
Assay: in vitro FM-HCR assay of MGMT activity (mPlum O^6MeG reporter plasmid)
Assay type: cell-based
Details: for Reporter expression (%) mean, O^6BG: 100 μM O^6BG; for Reporter expression (%) mean, O^6BG / Reporter expression (%) mean, DMSO: U251 cells, flow cytometry 24 h after transfection, damaged/undamaged reporter, inversely related to MGMT activity; for Reporter expression (%) mean, DMSO: 0.1% DMSO; for MGMT activity (a.u.) DMSO / MGMT activity (% of WT) DMSO: DMSO condition; for MGMT activity (a.u.) DMSO / MGMT activity (a.u.) O^6BG: determined from percent reporter expression; for MGMT activity (% of WT) DMSO / MGMT activity (% of WT) O^6BG: relative to wild-type MGMT in same condition; for Relative MGMT activity (%): MGMT activity (a.u.) in O^6BG divided by DMSO x 100, higher values indicate resistance; for MGMT activity (a.u.) O^6BG / MGMT activity (% of WT) O^6BG: O^6BG condition; for Ratio percent reporter expression (O^6BG/DMSO): lower values indicate resistance to O^6BG; for O^6BG resistance relative to WT (%): percentage difference in relative MGMT activity between variant and wild-type MGMT
Source text: The present Example includes, in part, an in vitro fluorescence multiplex host cell reactivation (FM-HCR) assay in which a reporter plasmid with O^6MeG-containing oligonucleotides is used. The oligonucleotides induce transcription errors that lead to expression of fluorescent mPlum protein. Functional MGMT will repair the O^6MeG sites and reduce mPlum expression. This represents a rapid and validated assay system to assess intracellular activity of MGMT. Further description of certain such assays is found in Nagel (2014 PNAS USA 111 (18): E1823-32, which is incorporated herein by reference.
The present Example uses an in vitro FM-HCR assay in which a reporter plasmid with 0° MeG-containing oligonucleotides is used to assay MGMT activity in cells. The O^6MeG-containing oligonucleotides induce transcription errors that lead to expression of fluorescent mPlum protein. Functional MGMT will repair the O'MeG sites and reduce mPlum expression. This represents a rapid and validated assay system to assess intracellular activity of MGMT. Further description of certain such assays is found in Nagel et al., 2014 PNAS USA 111 (18): E1823-32 and Piett et al., 2021 Nat. Protoc. 16 (9): 4265-4298, each of which is incorporated herein by reference.
The in vitro FM-HCR assay was performed using the U251 human glioblastoma cell line. The cells were cultured in DMEM with 10% FBS and passaged every three days.
To express MGMT variants in the cells, plasmids encoding each MGMT variant were designed and generated by either de novo synthesis or cloning into the pTwist EF1 Alpha Puro vector at the HindII-BamHI multiple cloning site. The pTwist EF1 Alpha Puro plasmid vector drives expression of the MGMT transcript from a human EF1-alpha promoter including intron 1 and an SV40 polyadenylation signal. Plasmids encoding the MGMT variants were purified using standard molecular biology techniques from E. coli with low endotoxins. Plasmids encoding wild-type MGMT or O^6BG-resistant MGMT^P140K were also designed and generated for use as controls.
To perform the in vitro FM-HCR assay, U251 cells were seeded in 12-well plates at a density of 50,000 cells per well in 1 mL culture media. The following day, the media was changed to 1 mL of culture media containing O^6BG (100 μM O^6BG and 0.1% DMSO final) or 0.1% DMSO; and the cells were transfected with 1,000 ng of a plasmid cocktail using Lipofectamine 3000 (ThermoFisher Scientific) at 1.8 μL Lipofectamine 3000 Reagent and 2 μL P3000 reagent in Opti-MEM medium (ThermoFisher Scientific). […] For the “undamaged” condition, the plasmid cocktail replaced the mPlum O^6MeG reporter plasmid with 100 ng of a plasmid expressing mPlum. The plasmid encoding BFP was used as an internal transfection control. For transfections where no MGMT encoding plasmid is used (no pMGMT), 250 ng of additional carrier plasmid was used to maintain a total DNA amount of 1,000 ng in each transfection. Four hours after transfection, the transfection medium was changed.
All transfected cells were analyzed by flow cytometry at 24-hours after transfection. Data was analyzed as previously described in Nagel et al., 2014 PNAS USA 111 (18): E1823-32 and Piett et al., 2021 Nat. Protoc. 16 (9): 4265-4298. For each condition, normalized reporter expression was determined by taking the product of the mPlum-positive cell count and the mean mPlum fluorescence intensity in mPlum-positive cells and dividing it by the product of the BFP-positive cell count and the mean BFP fluorescence intensity in BFP-positive cells. Next, for each MGMT variant, the percent reporter expression was determined by taking the normalized reporter expression in the “damaged” condition and dividing it by the normalized reporter expression in the “undamaged” condition, and then multiplying by 100 to obtain a percent value. […]

Row | Molecule | Reporter expression (%) mean, O^6BG | Reporter expression (%) mean, DMSO | MGMT activity (a.u.) DMSO | MGMT activity (% of WT) DMSO | Relative MGMT activity (%) | MGMT activity (a.u.) O^6BG | MGMT activity (% of WT) O^6BG | Ratio percent reporter expression (O^6BG/DMSO) | O^6BG resistance relative to WT (%)
1 | B1 | 104.3% | 109.7% | 0.91 a.u. | 16.9 % of WT | 105.1% | 0.96 a.u. | 67.1 % of WT | 0.95 | 297.7%
2 | B2 | 49.0% | 15.3% | 6.52 a.u. | 120.7 % of WT | 31.3% | 2.04 a.u. | 142.9 % of WT | 3.20 | 18.4%
3 | B3 | 76.8% | 25.3% | 3.96 a.u. | 73.3 % of WT | 32.9% | 1.30 a.u. | 91.2 % of WT | 3.04 | 24.5%
4 | B4 | 31.0% | 14.7% | 6.82 a.u. | 126.1 % of WT | 47.3% | 3.23 a.u. | 225.8 % of WT | 2.11 | 79.0%
5 | B5 | 93.0% | 94.0% | 1.06 a.u. | 19.7 % of WT | 101.1% | 1.08 a.u. | 75.3 % of WT | 0.99 | 282.4%
6 | B6 | 38.3% | 25.3% | 3.95 a.u. | 73.0 % of WT | 66.1% | 2.61 a.u. | 182.6 % of WT | 1.51 | 150.1%
7 | B7 | 29.3% | 15.7% | 6.38 a.u. | 118.1 % of WT | 53.4% | 3.41 a.u. | 238.6 % of WT | 1.87 | 102.1%
8 | B8 | 64.0% | 16.3% | 6.12 a.u. | 113.3 % of WT | 25.5% | 1.56 a.u. | 109.4 % of WT | 3.92 | −3.4%
